Here are results for 4 molecules from patent US20200247855A1, “THERAPY AND DIAGNOSTICS” (OXFORD UNIVERSITY INNOVATION LIMITED, priority 2017, published 2020).

For one test, the target named is T1, CXCL8_HUMAN (Homo sapiens, UniProt P10145).
T1 sequence (P10145 21-99): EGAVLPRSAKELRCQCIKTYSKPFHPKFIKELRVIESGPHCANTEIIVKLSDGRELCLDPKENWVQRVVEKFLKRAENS
Briefly: Yeast surface display (YSD) FACS binding. Also noted: label (chemical). The settings on record: yeast surface display. The procedure:
(§1) Table 1. Tick CKBPs described in PCT/GB2017/050563 and [17]. Tick peptide sequences isolated in yeast surface display fluorescent-activated cell sorting (FACS) screens using a labelled chemokine. Identity with Evasin-1, 4 or 3 was calculated using BLAST. Abbreviations: IXORI—Ixodes ricinus, RHISA—Rhipicephalus sanguineus, AMBMA—Amblyomma maculatum, AMBPA—Amblyomma parvum, AMBTR—Amblyomma triste, AMBAM—Amblyomma americanum, AMBCA—Amblyomma cajennense, RHIPU—Rhipicephalus pulchellus. Table 2A-C. Binding characteristics of tick CKBPs previously disclosed (PCT/GB2017/050563 and [17]). All members of the human chemokine family[164] are listed in column 1. Binding to human chemokines was determined for 14 tick CKBPs using biolayer interferometry (BLI) with calculated Kd shown as Molar (Moles/Litre). Binding data for 17 other novel tick CKBPs was assayed using yeast surface display[17,166],with positive binding results shown as “YES”. For biolayer interferometry, His-tagged purified tick CKBP was bound to a Ni-NINTA sensor on an OctetRed® 384 system, and then binding to each chemokine listed (with the exception of CCL25, CCL26, CXCL16, CXCL17, CXCL4L1, XCL2) was assayed in a cross-binding screen at a chemokine concentration of 300 nM as described. For those chemokines showing binding to a tick CKBP in the cross-binding screen, binding assays were repeated using different doses of chemokine. Association, equilibrium and dissociation data were analysed using Octet software to create corresponding fitted curves, and used to calculate Kd. For yeast surface display, (YSD) background fluorescence was controlled for by using either an empty vector or by omitting the chemokine (i.e. using streptavidin-Alexa647 alone). An arbitrary threshold of >3 fold over background mean fluorescence intensity was chosen to describe confirmed re-tests. Where binding was detected data are indicated as “YES”. […] For yeast surface display data, empty cells represent chemokines that were not tested. Binding data published in relation to previously described tick CKBPs (Evasins-1, 4 and 3) is also shown for comparison in each of FIGS. 2A-C, with the relevant data obtained from publications: [20-22,32]. Table 3: Neutralisation of human chemokines by tick CKBPs previously disclosed (PCT/GB2017/050563 and [17]). Neutralising activity was determined using a quantitative THP1 cell migration assay in a 96-well Boyden chamber with chemokine in the bottom chamber as described. Cells migrating through to the bottom chamber at 4 hours were counted using flow cytometry in a 96 well plate format. IC50 for neutralisation was determined at the chemokine EC80 dose as determined using a range of tick CKBP concentrations. Data was analysed using GraphPad Prism to determine IC50, which is shown as Molar (Moles/Litre). Empty cells represent experiments not done. Table 4—Other previously described tick CKBPs. Tick CKBPs that were also described in PCT/GB2017/050563 and Singh et al. are indicated in “Notes”. Table 5.—Novel tick CKBPs of the invention. Table 6. […] The peptide sequence prefix indicates the identity, and suffix indicate the tick species as follows: AMBCA, Amblyomma cajennense and IXORI, Ixodes ricinus. […] Certain tick peptides e.g. P1074_IXORI were recovered from screens performed with more than one chemokine. Individual yeast clones recovered from the library were re-tested using a FACS (fluorescence activated cell sorting), experiment. The binding of the peptide to the chemokine was assayed by measuring the percent (%), of yeast cells expressing the given peptide that exceeded a background threshold set by measuring the fluorescence of the yeast library pool treated with streptavidin-[…] alone. When more than one independent yeast clone was isolated for a given peptide-chemokine combination, the mean percent shift was calculated and reported in column 3. […]
For orientation: A flow cytometer gives signals particle by particle.

The target in another test is T2, CCL17_HUMAN (Homo sapiens, UniProt Q92583).
T2 sequence (Q92583 24-94): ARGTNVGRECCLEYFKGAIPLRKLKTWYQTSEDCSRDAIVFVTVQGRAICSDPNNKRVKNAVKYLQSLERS
Briefly: Yeast surface display (YSD) FACS binding. The procedure:
as §1

Another test concerns the target T3, CCL5_HUMAN (Homo sapiens, UniProt P13501).
T3 sequence (P13501 24-91): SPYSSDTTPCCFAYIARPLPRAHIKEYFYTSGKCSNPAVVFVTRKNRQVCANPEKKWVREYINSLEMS
Briefly: Yeast surface display (YSD) FACS binding. The protocol: as §1

A further test addresses CCL20_HUMAN (Homo sapiens, UniProt P78556). Briefly: Yeast surface display (YSD) FACS binding. The procedure: as §1
Another test has as its target T4, CCL4L1_HUMAN (Homo sapiens, UniProt Q8NHW4).
T4 sequence (Q8NHW4 24-92): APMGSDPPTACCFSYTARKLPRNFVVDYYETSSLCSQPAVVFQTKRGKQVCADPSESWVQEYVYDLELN
Briefly: Biolayer interferometry (BLI) binding. The procedure: as §1

The next test has as its target CCL3L1_HUMAN (Homo sapiens, UniProt P16619). Briefly: Biolayer interferometry (BLI) binding. The protocol:
as §1
(In general: In BLI a coated tip is dipped into the sample, and binding shifts an interference pattern.)

The target of the next test is T5, CCL3_HUMAN (Homo sapiens, UniProt P10147).
T5 sequence (P10147 24-92): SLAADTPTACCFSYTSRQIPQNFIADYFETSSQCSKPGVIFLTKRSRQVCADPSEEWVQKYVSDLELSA
Briefly: Biolayer interferometry (BLI) binding. The procedure: as §1

In another test the target is CCL13_HUMAN (Homo sapiens, UniProt Q99616). Briefly: Biolayer interferometry (BLI) binding. The protocol:
as §1

A further test concerns the target T6, CCL14_HUMAN (Homo sapiens, UniProt Q16627).
T6 sequence (Q16627 20-93): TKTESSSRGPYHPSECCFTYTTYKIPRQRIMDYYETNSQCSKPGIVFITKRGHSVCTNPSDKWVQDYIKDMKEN
Briefly: Biolayer interferometry (BLI) binding. The protocol:
as §1

Another test deals with T7, CCL18_HUMAN (Homo sapiens, UniProt P55774).
T7 sequence (P55774 21-89): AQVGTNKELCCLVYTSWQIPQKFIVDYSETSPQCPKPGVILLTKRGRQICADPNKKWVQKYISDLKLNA
Briefly: Biolayer interferometry (BLI) binding. The procedure:
as §1

The target in the next test is CCL11_HUMAN (Homo sapiens, UniProt P51671). Briefly: Biolayer interferometry (BLI) binding. The procedure:
as §1

A further test deals with T8, CCL4_HUMAN (Homo sapiens, UniProt P13236).
T8 sequence (P13236 24-92): T4 sequence (Q8NHW4 24-92) with G47S
Briefly: Biolayer interferometry (BLI) binding. The procedure: as §1

The target of the next test is T9, CCL8_HUMAN (Homo sapiens, UniProt P80075).
T9 sequence (P80075 24-99): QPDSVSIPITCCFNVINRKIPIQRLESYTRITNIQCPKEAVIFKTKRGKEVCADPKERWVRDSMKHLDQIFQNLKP
Briefly: Biolayer interferometry (BLI) binding. Particulars: read-out: Kd, CCL8_HUMAN. The procedure: as §1

A further test has as its target T10, CCL1_HUMAN (Homo sapiens, UniProt P22362).
T10 sequence (P22362 24-96): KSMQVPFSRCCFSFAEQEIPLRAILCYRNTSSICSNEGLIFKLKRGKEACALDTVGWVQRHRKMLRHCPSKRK
Briefly: Biolayer interferometry (BLI) binding. The procedure:
as §1

The target of another test is CCL2_HUMAN (Homo sapiens, UniProt P13500). Briefly: Biolayer interferometry (BLI) binding. The procedure: as §1
Chain of CCL2_HUMAN (P13500 24-99): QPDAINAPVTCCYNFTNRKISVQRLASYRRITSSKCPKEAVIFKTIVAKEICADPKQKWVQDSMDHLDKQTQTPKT
Another test deals with CCL7_HUMAN (Homo sapiens, UniProt P80098). Briefly: Biolayer interferometry (BLI) binding. The protocol:
as §1

The target of another test is T11, CCL16_HUMAN (Homo sapiens, UniProt O15467).
T11 sequence (O15467 24-120): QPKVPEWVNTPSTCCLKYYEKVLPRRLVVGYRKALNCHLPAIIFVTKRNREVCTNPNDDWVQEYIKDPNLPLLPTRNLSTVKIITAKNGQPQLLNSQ
Briefly: Biolayer interferometry (BLI) binding. The protocol: as §1

A further test deals with chemokines. Particulars: list of chemokines bound, from the literature [18,20-22]; cited from earlier work.
Another test has as its target CXCL12_HUMAN (Homo sapiens, UniProt P48061). Briefly: Yeast surface display (YSD) FACS binding. Particulars: yeast surface display. The protocol: as §1

Where a chain is given by its changes, count along the chain named. “Also recorded” adds a separate entry of the source.

Chain of CCL20_HUMAN (P78556 27-96): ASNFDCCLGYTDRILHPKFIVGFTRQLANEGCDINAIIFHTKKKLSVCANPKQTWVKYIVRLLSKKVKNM
Chain of CCL11_HUMAN (P51671 24-97): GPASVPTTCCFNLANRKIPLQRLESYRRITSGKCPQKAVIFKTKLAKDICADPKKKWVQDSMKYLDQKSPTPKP
Chain of CCL7_HUMAN (P80098 24-99): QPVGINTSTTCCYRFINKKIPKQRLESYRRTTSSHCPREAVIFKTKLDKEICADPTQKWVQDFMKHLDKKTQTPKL
Chain of CCL3L1_HUMAN (P16619 24-93): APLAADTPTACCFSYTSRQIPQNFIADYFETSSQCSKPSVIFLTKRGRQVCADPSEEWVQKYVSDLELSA
Chain of CXCL12_HUMAN (P48061 22-93): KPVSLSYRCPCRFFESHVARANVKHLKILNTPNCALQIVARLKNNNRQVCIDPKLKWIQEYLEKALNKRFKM
Chain of CCL13_HUMAN (Q99616 17-98): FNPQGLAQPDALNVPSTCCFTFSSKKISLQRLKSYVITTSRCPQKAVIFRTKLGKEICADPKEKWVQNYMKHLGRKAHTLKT

B1: P993_AMBPA: tick CKBP, Amblyomma parvum (protein, listed as Amblyomma parvum)
chain: HRHYDPNEPCLIAGLKTPRDALPAGCRYDCMIKKNQKLRDGLLCLDVPEKVVKRMVNYLNYSCPLGTCRKGICKRKHRNVRCQKYPVFYMSPPK
For the molecule B1, the “Binding to CXCL8_HUMAN, YSD” value in the test with CXCL8_HUMAN was “YES (An arbitrary threshold of >3 fold over background mean fluorescence intensity was chosen to describe confirmed re-tests. Where binding was detected data are indicated as “YES”)”. For the same molecule, the “Binding to CCL17_HUMAN, YSD” value with CCL17_HUMAN was “YES (An arbitrary threshold of >3 fold over background mean fluorescence intensity was chosen to describe confirmed re-tests. Where binding was detected data are indicated as “YES”)”. In addition, the “Binding to CCL5_HUMAN, YSD” value with CCL5_HUMAN is “YES (An arbitrary threshold of >3 fold over background mean fluorescence intensity was chosen to describe confirmed re-tests. Where binding was detected data are indicated as “YES”)”. The “Binding to CCL20_HUMAN, YSD” value in the test with CCL20_HUMAN was “YES (An arbitrary threshold of >3 fold over background mean fluorescence intensity was chosen to describe confirmed re-tests. Where binding was detected data are indicated as “YES”)”.

B2: P467_RHIPU: tick CKBP (evasin), Rhipicephalus pulchellus; RPU-01 stated identical (protein, listed as Rhipicephalus pulchellus)
chain: AEKSLDSDSSGEDYELWTQGCPFLVAENRTGFGTTVSCQHNCNGAIEKVPEGEPCYTIGEDGLGRMKLNLPYNCSLGECSGGVCVPNGRSDVCFKRTWEENNKAMA
As to B2, the Kd (commonly the free concentration of one partner at which half of the binding sites on the other are occupied at equilibrium, for simple one-to-one binding) with CCL4L1_HUMAN was 4.72 nM; with CCL3L1_HUMAN, 0.524 nM; with CCL3_HUMAN, 0.363 nM; in the test with CCL13_HUMAN it was 2.56 nM; with CCL14_HUMAN, 4.13 nM; with CCL18_HUMAN it was 16.6 nM. Also, the Kd with CCL11_HUMAN came out at 1.4 nM; in the test with CCL4_HUMAN, 13.6 nM; in the test with CCL8_HUMAN it was 2.85 nM; in the test with CCL1_HUMAN it was 53.4 nM; with CCL2_HUMAN it was 0.001 nM; with CCL7_HUMAN, 2.15 nM. Moreover, in the test with CCL16_HUMAN, the Kd came to 14.1 nM. The “Previously described chemokine binding” value in the test with chemokines was “CCL11, CCL24,; also recorded: CCL26, CCL2,; also recorded: CCL8, CCL7”.

B3: P1015_AMBCA: tick CKBP, Amblyomma cajennense (protein)
chain: EEAPGPAPGCGEPEPTPPKPRRHGIVTNVNSCNSTILVWNGKEFPALCKVRCPHKSYRVSDFEPCLKFTNRRFLQERKDETPYKCKLGFCRHGTCITSEHSRKVPCKVPADRLDPSE
modifications: Amblyomma cajennense
B3: the “Binding to CXCL12_HUMAN, YSD” value in the test with CXCL12_HUMAN was “YES (An arbitrary threshold of >3 fold over background mean fluorescence intensity was chosen to describe confirmed re-tests. Where binding was detected data are indicated as “YES”)”. Besides, the “Binding to CCL20_HUMAN, YSD” value with CCL20_HUMAN is reported as “YES (An arbitrary threshold of >3 fold over background mean fluorescence intensity was chosen to describe confirmed re-tests. Where binding was detected data are indicated as “YES”)”.

B4: P1252_AMBAM: tick CKBP, Amblyomma americanum (protein, listed as Amblyomma americanum)
chain: RGGAASVPANASIPGCGDAQTTPAAPEDQPKHYVVYRDGNGCEVKIIGTWMTTEDYNCLPDTFRKNRAPHGKVKLPASCKKTCGNAVQNLKDGTPCRKVFGDLGRRRNLIKNGCLVGACQSGLCVSGNRTISCYIPPNSTDTRATPGSFAE
As for B4, the “Binding to CCL17_HUMAN, YSD” value with CCL17_HUMAN is “YES (An arbitrary threshold of >3 fold over background mean fluorescence intensity was chosen to describe confirmed re-tests. Where binding was detected data are indicated as “YES”)”. Besides, the “Binding to CCL20_HUMAN, YSD” value with CCL20_HUMAN is “YES (An arbitrary threshold of >3 fold over background mean fluorescence intensity was chosen to describe confirmed re-tests. Where binding was detected data are indicated as “YES”)”.
